Assay results as given in the nanobody polyreactivity screen of Harvey et al. (2022).

Assay: yeast display, Sf9 membrane polyspecificity reagent, FACS + sequencing; frameworks hold sequencing errors
Procedure, shortened: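 Sorting gates, low and high (top ~1%), were placed on anti-HA fluorescence to track expression and on streptavidin fluorescence to track reagent binding. A clone's polyreactivity label is taken from the gate it came out of. The reagent was 10% biotinylated, detergent-solubilized Sf9 membrane, applied for 1 hour at 4 °C to galactose-induced yeast display cells.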

Sequence | polyreactivity (PSR sort gate)
QVQLVESGGGLVQAGGSLRLSCAASGRIFYYNGMGWYRQAPGKERELVAAIRWSGGSTRYADSVKGRFTISRDNAKNTVYLQMNSLKPEDTAVYYCAADGFYRWYPYKRYQFYYWGQGTQVTVSS | high polyreactivity
QVQLVESGGGLVQAGGSLRLSCAASGRIFYYNTMGWYREAPGTERELVAAISSGAGRTYYADSVKGRFTISRDNAMNTVYLQMNSLKPEDTAVYYCAARFYVIKWYDYWGQGTQVTVSS | high polyreactivity
QVQLVESGGGLVQAGGSLRLSCAASGRIFYYNTMGWYRQAPGKERELVAAISSTASTTYADSVKGRFTISRDNAKNTDYIQMNSLKPEDTAVYYCAADHRYHWANPRGYYYWGQGTQVTVSS | high polyreactivity
QVQLVESGGGLVQAGGSLRLSCAASGRIFYYNTMGWYRQSPGKERELVAAISSTASTTYADSVKGRFTISRENAKNTVYLKMNILKPEDTAVYYCAAAYSVRGRTYDSWGQGTQVTVSS | high polyreactivity
QVQLVESGGGLVQAGGSLRLSCAASGRIFYYSAMGWSRQAPGIERELVAAITRRGGSTYYADSVKGRVTISRDNAKNTVFLQMNSLKPEDTEVYYSAKPDRTCWLDGDYWGQGSQVTVSS | low polyreactivity
QVQLVESGGGLVQAGGSLRLSCAASGRIFYYYAMGWSRQAPGKERELVAGISYSGGRTYYADSVKGRFTISRDNAKNTVYLQMNSLKPEDTAVYYCAAAYRGANYGYGFDYWGQGTQVTVSS | high polyreactivity
QVQLVESGGGLVQAGGSLRLSCAASGRIFYYYAMGWYRPAPGKERELVAAITSGGRTYYADSVKGRFTISRDNAKNTVYLQMNSLKPEDTAVYYCAAERTYTYLGPGYEYWGQGTQVTVSS | low polyreactivity
QVQLVESGGGLVQAGGSLRLSCAASGRIFYYYAMGWYRQAPGKERELFADITWSGGSTYYADSVKGRFTISRDNAKNTVYLQMNSLKPEDTAVNYCNAVYFNYLLEYDYWGQGTQVTVSS | high polyreactivity
QVQLVESGGGLVQAGGSLRLSCAASGRIFYYYAMGWYRQAPGKERELVAAITRRGGSTYYADSVKGRFTISRDNAKNTVYLQLNSLKPEDTAVYYCAKPDRTGWLDGDYWGQGTQVTVSS | low polyreactivity
QVQLVESGGGLVQAGGSLRLSCAASGRIFYYYAMGWYRQAPGKERELVAASSTYYADSVKGRFTISRDNAKNTVYLQMNSQKPEDTAVYYCAAVTFSYDGYDYWGPGTQVTVSS | low polyreactivity
QVQLVESGGGLVQAGGSLRLSCAASGRIFYYYDMGWYRQAPGKERELVAGINDDSSTYYADSVKGRFTISRDNAKNTVYLQMNSLKPEDTAVYYCNAGPSWYPSWYYYWGQGTQVTVSS | low polyreactivity
QVQLVESGGGLVQAGGSLRLSCAASGRIFYYYPMGWYRQAPGKERELVADITRGGGTYYADSVKGRFTISRDNAKNTVYLQMNSLKPEDTAVYYCAKGGPPESHHPYRYRFDYWGQGTQVTVSS | low polyreactivity
QVQLVESGGGLVQAGGSLRLSCAASGRIFYYYTMGWYRQAPGKERELVADISRGGSTYYADSVKGRFTISRDNAKNTVYLQMNSLKPEDTAVYYCNAVTRIQTSYPSNWGMMDYWGQGTQVTVSS | low polyreactivity
QVQLVESGGGLVQAGGSLRLSCAASGRIFYYYTMGWYRQAPGKERELVAGISRSGDRTYYADSVKGRFTISRDNGKNTVYLQMNSLKPEDTAVYYFAALYGYVHRKAFYYWGQGTQVTVSS | high polyreactivity
QVQLVESGGGLVQAGGSLRLSCAASGRIGKYAMGWYRQAPGKERELVATISSTGTTNYADSVKGRFTISRDNAKNTVYLKMNSLKPEDTAVYYCAARWEYVGYRRRYYRFDYWGQGTQVTVSS | high polyreactivity
QVQLVESGGGLVQAGGSLRLSCAASGRIICFYPMGWYRQAPGKEREFVAAIRWSGGTTYYADSVKGRFTISRDNAKNNVYLQMNSLKPEDTAVYYCAAGRAVGHSLYSRGYDYWGQGTQVTVSS | low polyreactivity
QVQLVESGGGLVQAGGSLRLSCAASGRIIDRNAMGWYRQAPGKERELVAAISSSGSTNYADSVKGRFTISRDNAKNTVYLQLNSLKPEDTAVYYCAARWRSVLASGTRPVSFDYWGQGTQVTVSS | low polyreactivity
QVQLVESGGGLVQAGGSLRLSCAASGRIIGFNAMGWYRQAPGKERELVASIRTTGGSTRYADSVKGRFTISRDNAKNTVYLQMNSLKPEDTAVYDCAARWGKTLWQYNYWGQGTQVTVSS | high polyreactivity
QVQLVESGGGLVQAGGSLRLSCAASGRIIGHNAMGWYRQAPGKERELVAAISSRGGSTFYADSVKGRFTISRDNAKNTVYLQKNSLKPEDTAVYYCNALGVGHSGFTKFSRYYYWGQGTQVTVSS | high polyreactivity
QVQLVESGGGLVQAGGSLRLSCAASGRIIGKNVMGWYRQAPGKERELVAAISKSGGSTYYADSVKGRFTISRDNAKNTVYLQMNSLKPEDTAVYYCAAKYYYHWHRQGYDYWGQGTQVTVSS | high polyreactivity
QVQLVESGGGLVQAGGSLRLSCAASGRIIGKYDMGWYRQAPGTERELVAAIRYNGGRTYYADSVKGRFTISRDNAKNTVYLQMNRLKPEDNAVYYCATRTYRVDPEFGYWGQGTEVTVSS | high polyreactivity
QVQLVESGGGLVQAGGSLRLSCAASGRIIGLYAMGWYRQAPGKEMELVAAISSAGSTYYADSVKGRFTISRDNAKNTVYLQMNSLKTEDTAVYYCDKSRYRGYDYWGQGTQVTVSS | low polyreactivity

Sequence | polyreactivity (PSR sort gate)
QVQLVESGGGLVQAGGSLRLSCAASGRIIGNYAMGWYRQAPGKERELVAAISNGGSTNYADSVKGRFTISRDNAKNTVYLQMNSLKPEDTAVYYCNADQWAVIWGYMVLDFYYWGQGTQVTVSS | low polyreactivity
QVQLVESGGGLVQAGGSLRLSCAASGRIIGRYAMGWYRQAPGKEREFVAAISGSGGSTYYADSVKGRFTISRDNAKNTVYLQMNSLKPEDTAVYYCNALSVPDYDYWGQGTQVTVSS | high polyreactivity
QVQLVESGGGLVQAGGSLRLSCAASGRIIGYYAMGWYRQAPGKERELVAGIDWSGGNTYYADSVKGRFTISRDNAKNTVYLQMNSLKPEDTAVYYCNTEGGRDTAWYDYWGQGTQVTVSS | low polyreactivity
QVQLVESGGGLVQAGGSLRLSCAASGRIIIYKAMGWYRQAPGKERQLVAAINRSGVSTHYADSVKGRFTISRDNAKNTVYLQMNSLKPEDTAVYYCARTVYGARSYDYWGQGTQVTVSS | low polyreactivity
QVQLVESGGGLVQAGGSLRLSCAASGRIIKFYAMGWYRQAPGKERELVARISRSGGRTYYADSVKGRFTISRDNAKNTVYLQMNSLKPEDTAVYYCAADTQSVATYDYWGQGTQVTVSS | low polyreactivity
QVQLVESGGGLVQAGGSLRLSCAASGRIINSNAMGWYRQAPGKERELVAAISTTGGRTYYADSVKGRFTISRDNAKNTVYLQMNSLKPEDTAVYYCNRLYRYLVWPAGEYDYWGQGTQVTVSS | high polyreactivity
QVQLVESGGGLVQAGGSLRLSCAASGRIIPYYAMGWYRQAPGKERELVASTNYADSVKGRFTISRDNAKNTVYLQMNSLKPEDTAVYYCAADGYRYSVYLIRNPMDYWGQGTQVTVSS | low polyreactivity
QVQLVESGGGLVQAGGSLRLSCAASGRIIRAYDMGWYRQAPGKERELVAVIRYRGGTTYYADSVKGRFTISRDNAMNTVYLQMYSLKPEDTAVYYCATEDNYHWWYTGVSYGEHDYLGQGTQVTVSS | low polyreactivity
QVQLVESGGGLVQAGGSLRLSCAASGRIIRSNVMGWYRQAPGKERDLVAGISRSGGSTYYADSVKGRFTISRDNAKNTVYLKMNSLKPEDTAVYYCNAGWWYLGSPFDRDYWGQGTQVTVSS | high polyreactivity
QVQLVESGGGLVQAGGSLRLSCAASGRIISHYAMGWYRQAPGKDRELVAAISRSGVSTYYADSVKGRFTISRDNAKNTVYLQMNSLKPEDTAVYYCNRRYDRGPYDYWGQGTQVTVSS | low polyreactivity
QVQLVESGGGLVQAGGSLRLSCAASGRIITGYAMGWYRQAPGKERELVAAISRGGSTNYADSVKGRFTISRDNAKNTVYLQMNSLKPEDTAVYYCAAGVHWDRGDYWGQGTQVTVSS | low polyreactivity
QVQLVESGGGLVQAGGSLRLSCAASGRIITYNAMGWYRQAPGKERELVAAISTTGGRTYYADSVKGRFTISRDNAKNTVYLQMNSLKPEDTAVYYCNAVLKRPLAYHVTYDYWGQGTQVTVSS | high polyreactivity
QVQLVESGGGLVQAGGSLRLSCAASGRIIYGYAMGWYRQAHGKERELVASITATYYADSVKGRFTISLDNSKNTVYLQMNSLIPEDTAVYYCNAYLSPKHPLSRPDPTFEGGYRGQGTQVTVSS | low polyreactivity
QVQLVESGGGLVQAGGSLRLSCAASGRIIYGYAMGWYRQAPGKERELVAAISASGGRTYYADSVKGRFTISRDHAKNTVYLQMNSLKPEDTAVYYCAADDVGPPDFYYWGQGTQVTVSS | high polyreactivity
QVQLVESGGGLVQAGGSLRLSCAASGRIIYGYARGWYRQAPGKERELVAAISASGGRTYYADSVKGRFTISRDNAKNTVYLQMNSLKPEDTAVYYCARARFYWLTQWSYDYWGQGTQVTVSS | high polyreactivity
QVQLVESGGGLVQAGGSLRLSCAASGRILAPYVMGWYRQAPGKERELVAAISRSTGRTYYADSVKGRFTISRDNAKNTVYLQMNSLKPEDTAVYYCNRDVRVSLMGYWGQGTQVTVSS | high polyreactivity
QVQLVESGGGLVQAGGSLRLSCAASGRILASYAMGWYRQAPGKERELVAAISRSGGSTYYADSVKGRFTISRDNAKNTVYLQMNSLKPEDTAVYYCAAKYPQKTPVNSYGNSFYYWGQGTQVTVSS | high polyreactivity
QVQLVESGGGLVQAGGSLRLSCAASGRILAYNVMGWYRQAPGKEREFVASIRRTGVRTYYADSVKGRFTISRDNAKNTVYLQMNSLKPEDTAVYYCNAANFNFWDYYYWGQGTQVTVSS | low polyreactivity
QVQLVESGGGLVQAGGSLRLSCAASGRILAYYAMGWYRQAPGKERELVAAITSGGRTYYADSVKGRFTISRDNAKNTVYLQMNSLKPEDTAVYYCNAVYGYWYGSWGQGTQVTVSS | high polyreactivity
QVQLVESGGGLVQAGGSLRLSCAASGRILAYYAMGWYRQAPGKERELVAAITSGGRTYYADSVKGRFTISRDNAKNTVYLQMNSLKPEDTPVYYCNAVYGYWYGSWGQGTQVTVSS | high polyreactivity
QVQLVESGGGLVQAGGSLRLSCAASGRILDYNAMGWYRQAPGKERELVADISGSGDSTYYADSVKGRFTISRDNAKNTVYLQMNSLKPEDTAVYYCAASGAWDWWLGPYDDYYWGQGTQVTVSS | low polyreactivity
